Measurements from patent US20210388087A1 (Chugai, published 2021).
Numbering of substitutions follows the chain as printed.

B1: CE115HA000/GLS3000 L27bY (antibody, IgG1, name in Kabat numbering, V domains shown)
VH: QVQLVESGGGVVQPGRSLRLSCAASGFTFSNAWMHWVRQAPGKGLEWVAQIKAKSNNYATYYAESVKGRFTISRDDSKNSLYLQMNSLKTEDTAVYYCRYVHYGAYYGVDAWGQGTTVTVSS
VL: DIVMTQSPLSLPVTPGEPASISCRSSQSYVHSNRNTYLHWYQQKPGQAPRLLIYKVSNRFSGVPDRFSGSGSGTDFTLKISRVEAEDVGVYYCGQGTQVPYTFGQGTKLEIK
notes: one-arm IgG1
B2: CE115HA000/GLS3000 L33F (antibody, IgG1, name in Kabat numbering, V domains shown)
VH: B1 VH
VL: B1 VL with Y29L, L38F
notes: one-arm IgG1
B3: CE115HA000/GLS3000 L33E (antibody, IgG1, name in Kabat numbering, V domains shown)
VH: B1 VH
VL: B1 VL with Y29L, L38E
notes: one-arm IgG1
B4: CE115HA000/GLS3000 N28H (antibody, IgG1, name in Kabat numbering, V domains shown)
VH: B1 VH
VL: B1 VL with Y29L, N33H
notes: one-arm IgG1
B5: CE115HA000/GLS3000 N28Q (antibody, IgG1, name in Kabat numbering, V domains shown)
VH: B1 VH
VL: B1 VL with Y29L, N33Q
notes: one-arm IgG1
B6: CE115HA000/GLS3000 N30G (antibody, IgG1, name in Kabat numbering, V domains shown)
VH: B1 VH
VL: B1 VL with Y29L, N35G
notes: one-arm IgG1
B7: CE115HA000/GLS3000 N28G (antibody, IgG1, name in Kabat numbering, V domains shown)
VH: B1 VH
VL: B1 VL with Y29L, N33G
notes: one-arm IgG1
B8: CE115HA000/GLS3000 N30D (antibody, IgG1, name in Kabat numbering, V domains shown)
VH: B1 VH
VL: B1 VL with Y29L, N35D
notes: one-arm IgG1
B9: CE115HA000/GLS3000 N28M (antibody, IgG1, name in Kabat numbering, V domains shown)
VH: B1 VH
VL: B1 VL with Y29L, N33M
notes: one-arm IgG1
B10: CE115HA000/GLS3000 N28W (antibody, IgG1, name in Kabat numbering, V domains shown)
VH: B1 VH
VL: B1 VL with Y29L, N33W
notes: one-arm IgG1
B11: CE115HA000/GLS3000 N30E (antibody, IgG1, name in Kabat numbering, V domains shown)
VH: B1 VH
VL: B1 VL with Y29L, N35E
notes: one-arm IgG1
B12: CE115HA000/GLS3000 N28K (antibody, IgG1, name in Kabat numbering, V domains shown)
VH: B1 VH
VL: B1 VL with Y29L, N33K
notes: one-arm IgG1
B13: CE115HA000/GLS3000 N30Q (antibody, IgG1, name in Kabat numbering, V domains shown)
VH: B1 VH
VL: B1 VL with Y29L, N35Q
notes: one-arm IgG1
B14: CE115HA000/GLS3000 L33V (antibody, IgG1, name in Kabat numbering, V domains shown)
VH: B1 VH
VL: B1 VL with Y29L, L38V
notes: one-arm IgG1
B15: CE115HA000/GLS3000 N30S (antibody, IgG1, name in Kabat numbering, V domains shown)
VH: B1 VH
VL: B1 VL with Y29L, N35S
notes: one-arm IgG1
B16: CE115HA000/GLS3000 N30M (antibody, IgG1, name in Kabat numbering, V domains shown)
VH: B1 VH
VL: B1 VL with Y29L, N35M
notes: one-arm IgG1
B17: CE115HA000/GLS3000 N30V (antibody, IgG1, name in Kabat numbering, V domains shown)
VH: B1 VH
VL: B1 VL with Y29L, N35V
notes: one-arm IgG1
B18: CE115HA000/GLS3000 N28V (antibody, IgG1, name in Kabat numbering, V domains shown)
VH: B1 VH
VL: B1 VL with Y29L, N33V
notes: one-arm IgG1
B19: CE115HA000/GLS3000 N28Y (antibody, IgG1, name in Kabat numbering, V domains shown)
VH: B1 VH
VL: B1 VL with Y29L, N33Y
notes: one-arm IgG1
B20: CE115HA000/GLS3000 L33P (antibody, IgG1, name in Kabat numbering, V domains shown)
VH: B1 VH
VL: B1 VL with Y29L, L38P
notes: one-arm IgG1
B21: CE115HA000/GLS3000 N30W (antibody, IgG1, name in Kabat numbering, V domains shown)
VH: B1 VH
VL: B1 VL with Y29L, N35W
notes: one-arm IgG1
B22: CE115HA000/GLS3000 L33D (antibody, IgG1, name in Kabat numbering, V domains shown)
VH: B1 VH
VL: B1 VL with Y29L, L38D
notes: one-arm IgG1
B23: CE115HA000/GLS3000 L33A (antibody, IgG1, name in Kabat numbering, V domains shown)
VH: B1 VH
VL: B1 VL with Y29L, L38A
notes: one-arm IgG1
B24: CE115HA000/GLS3000 L33I (antibody, IgG1, name in Kabat numbering, V domains shown)
VH: B1 VH
VL: B1 VL with Y29L, L38I
notes: one-arm IgG1
B25: CE115HA000/GLS3000 L33M (antibody, IgG1, name in Kabat numbering, V domains shown)
VH: B1 VH
VL: B1 VL with Y29L, L38M
notes: one-arm IgG1
B26: CE115HA000/GLS3000 N53A (antibody, IgG1, name in Kabat numbering, V domains shown)
VH: B1 VH
VL: B1 VL with Y29L, N58A
notes: one-arm IgG1
B27: CE115HA000/GLS3000 N53D (antibody, IgG1, name in Kabat numbering, V domains shown)
VH: B1 VH
VL: B1 VL with Y29L, N58D
notes: one-arm IgG1
B28: CE115HA000/GLS3000 N28P (antibody, IgG1, name in Kabat numbering, V domains shown)
VH: B1 VH
VL: B1 VL with Y29L, N33P
notes: one-arm IgG1
B29: CE115HA000/GLS3000 N28T (antibody, IgG1, name in Kabat numbering, V domains shown)
VH: B1 VH
VL: B1 VL with Y29L, N33T
notes: one-arm IgG1
B30: CE115HA000/GLS3000 N28A (antibody, IgG1, name in Kabat numbering, V domains shown)
VH: B1 VH
VL: B1 VL with Y29L, N33A
notes: one-arm IgG1
B31: CE115HA000/GLS3000 N28E (antibody, IgG1, name in Kabat numbering, V domains shown)
VH: B1 VH
VL: B1 VL with Y29L, N33E
notes: one-arm IgG1
B32: CE115HA000/GLS3000 N28L (antibody, IgG1, name in Kabat numbering, V domains shown)
VH: B1 VH
VL: B1 VL with Y29L, N33L
notes: one-arm IgG1
B33: CE115HA000/GLS3000 N30A (antibody, IgG1, name in Kabat numbering, V domains shown)
VH: B1 VH
VL: B1 VL with Y29L, N35A
notes: one-arm IgG1
B34: CE115HA000/GLS3000 N30H (antibody, IgG1, name in Kabat numbering, V domains shown)
VH: B1 VH
VL: B1 VL with Y29L, N35H
notes: one-arm IgG1
B35: CE115HA000/GLS3000 N28I (antibody, IgG1, name in Kabat numbering, V domains shown)
VH: B1 VH
VL: B1 VL with Y29L, N33I
notes: one-arm IgG1
B36: CE115HA000/GLS3000 N30K (antibody, IgG1, name in Kabat numbering, V domains shown)
VH: B1 VH
VL: B1 VL with Y29L, N35K
notes: one-arm IgG1
B37: CE115HA000/GLS3000 N28S (antibody, IgG1, name in Kabat numbering, V domains shown)
VH: B1 VH
VL: B1 VL with Y29L, N33S
notes: one-arm IgG1
B38: CE115HA000/GLS3000 N30T (antibody, IgG1, name in Kabat numbering, V domains shown)
VH: B1 VH
VL: B1 VL with Y29L, N35T
notes: one-arm IgG1
B39: CE115HA000/GLS3000 N30L (antibody, IgG1, name in Kabat numbering, V domains shown)
VH: B1 VH
VL: B1 VL with Y29L, N35L
notes: one-arm IgG1
B40: CE115HA000/GLS3000 N30I (antibody, IgG1, name in Kabat numbering, V domains shown)
VH: B1 VH
VL: B1 VL with Y29L, N35I
notes: one-arm IgG1
B41: CE115HA000/GLS3000 N30P (antibody, IgG1, name in Kabat numbering, V domains shown)
VH: B1 VH
VL: B1 VL with Y29L, N35P
notes: one-arm IgG1
B42: CE115HA000/GLS3000 N30Y (antibody, IgG1, name in Kabat numbering, V domains shown)
VH: B1 VH
VL: B1 VL with Y29L, N35Y
notes: one-arm IgG1
B43: CE115HA000/GLS3000 N28F (antibody, IgG1, name in Kabat numbering, V domains shown)
VH: B1 VH
VL: B1 VL with Y29L, N33F
notes: one-arm IgG1
B44: CE115HA000/GLS3000 N30R (antibody, IgG1, name in Kabat numbering, V domains shown)
VH: B1 VH
VL: B1 VL with Y29L, N35R
notes: one-arm IgG1

target: T1, CD3 epsilon homodimer protein (UniProt P07766 23-126); test: SPR, antibody over immobilised CD3e homodimer;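 further: SPR at 25 °C with CD3 epsilon homodimer amine-coupled to a CM4 sensor chip and antibody flowed over as analyte in HBS-EP+ running buffer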
T1 construct: also called CD3 (CD3 epsilon)
T1 sequence (P07766 23-126): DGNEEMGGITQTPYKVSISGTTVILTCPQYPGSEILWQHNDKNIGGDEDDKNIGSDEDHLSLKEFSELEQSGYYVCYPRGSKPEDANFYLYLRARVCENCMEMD
Experimental: An appropriate amount of CD3 epsilon homodimer protein was immobilized onto Sensor chip CM4 (GE Healthcare Japan Corp.) by the amine coupling method. Then, the antibody having an appropriate concentration was injected thereto as an analyte and allowed to interact with the CD3 epsilon homodimer protein on the sensor chip. Then, the sensor chip was regenerated by the injection of 10 mmol/L glycine-HCl (pH 1.5). The assay was conducted at 25 degrees C., and HBS-EP+(GE Healthcare Japan Corp.) was used as a running buffer. […] Each parameter was calculated using Biacore T200 Evaluation Software (GE Healthcare Japan Corp.).

Compared with B1, B2 is lower in “KD ratio to GLS3000” value: 22.2 for the first, 0.65 for the second.

First: B3
Second: B4
The “KD ratio to GLS3000” value of the first is lower: 0.83 for the first, 3 for the second.

Compared with B5, B6 is lower in “KD ratio to GLS3000” value: 3.48 for the first, 2.1 for the second.

Compared with B7, B8 is higher in “KD ratio to GLS3000” value: 2.41 for the first, 3.82 for the second.

First: B9
Second: B10
The “KD ratio to GLS3000” value of the first is higher: 3.29 for the first, 3.17 for the second.

First: B11
Second: B12
The “KD ratio to GLS3000” value of the first is higher: 2.83 for the first, 2.34 for the second.

Going from B13 to B14, the “KD ratio to GLS3000” value rises from 1 to 1.26.

First: B15
Second: B16
The “KD ratio to GLS3000” value of the first is higher: 10.6 for the first, 1.2 for the second.

Compared with B17, B18 is higher in “KD ratio to GLS3000” value: 2.62 for the first, 3.73 for the second.

First: B19
Second: B20
The “KD ratio to GLS3000” value of the first is lower: 3.89 for the first, 32.9 for the second.

Going from B21 to B22, the “KD ratio to GLS3000” value rises from 0.97 to 37.5.

First: B23
Second: B24
The “KD ratio to GLS3000” value of the first is lower: 0.82 for the first, 0.86 for the second.

First: B25
Second: B26
The “KD ratio to GLS3000” value of the first is higher: 0.9 for the first, 0.82 for the second.

Going from B27 to B28, the “KD ratio to GLS3000” value rises from 2.8 to 4.18.

First: B29
Second: B30
The “KD ratio to GLS3000” value of the first is lower: 2.67 for the first, 4.18 for the second.

Going from B31 to B32, the “KD ratio to GLS3000” value falls from 5.47 to 3.34.

First: B33
Second: B34
The “KD ratio to GLS3000” value of the first is higher: 1.16 for the first, 1.08 for the second.

Going from B35 to B36, the “KD ratio to GLS3000” value falls from 2.81 to 1.35.

First: B37
Second: B38
The “KD ratio to GLS3000” value of the first is lower: 4.3 for the first, 12.7 for the second.

First: B39
Second: B40
The “KD ratio to GLS3000” value of the first is lower: 1.19 for the first, 1.24 for the second.

Compared with B41, B42 is lower in “KD ratio to GLS3000” value: 12.1 for the first, 1.03 for the second.

First: B43
Second: B44
The “KD ratio to GLS3000” value of the first is higher: 2.59 for the first, 1.73 for the second.
